Experimental data: publication PMC7857400 (2020)

What was measured:
[1] = target: T1, SARS-CoV-2 spike protein receptor binding domain (RBD) (SARS-CoV-2, UniProt P0DTC2 319-541); test: SPR
[2] = target: T1, SARS-CoV-2 spike protein receptor …; test: SPR; remark: listed apart in the source

B1: Nb21 (VHH)
VHH: QVQLVESGGGLVQAGGSLRLSCAVSGLGAHRVGWFRRAPGKEREFVAAIGANGGNTNYLDSVKGRFTISRDNAKNTIYLQMNSLKPQDTAVYYCAARDIETAEYTYWGQGTQVTVSS
[1]
  koff: < 1e-06 s⁻¹
[2]
  Kd: < 1 pM
